Assay results taken from patent US20120251444A1 (RAPTOR PHARMACEUTICALS, published 2012).
Bridge positions count the residues as written; N and C are the ends. * marks the point of attachment. Biotin = O=C1N[C@H]2[C@H](CS[C@H]2CCCCC(=O)*)N1

T1: recombinant human LRP1 cluster II (R&D Systems, amino acids 786-1165, with C-terminal Fc tag) (human, UniProt Q07954 786-1165)
T1 construct: range 786-1165; Bought from R&D Systems; coated on plates; also called LRP1-C2; not shown: C-terminal Fc tag of the bought protein
T1 sequence (looked up): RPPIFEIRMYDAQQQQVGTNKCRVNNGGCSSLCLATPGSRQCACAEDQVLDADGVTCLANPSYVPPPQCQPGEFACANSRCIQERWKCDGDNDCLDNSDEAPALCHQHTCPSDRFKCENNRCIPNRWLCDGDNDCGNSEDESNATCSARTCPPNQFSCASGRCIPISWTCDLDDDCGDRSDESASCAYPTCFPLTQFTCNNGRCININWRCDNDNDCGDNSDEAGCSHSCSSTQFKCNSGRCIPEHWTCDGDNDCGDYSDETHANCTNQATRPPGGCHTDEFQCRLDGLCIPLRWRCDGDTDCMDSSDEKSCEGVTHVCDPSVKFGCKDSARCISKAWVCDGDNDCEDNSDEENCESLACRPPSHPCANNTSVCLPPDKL

B1: mRAP-8c (peptide)
peptide: GGSGGCGKHFEAKIEKHNHYQKQLEIAHEKLRHAESVGDGERVSRSREKHALLEGRTKELGYTVKKHLQDGC
modifications: N-terminal biotin (biotin-GGSGG)
notes: Cysteines at both ends are meant for cyclization by a disulfide bond
B2: mRAP-14c (peptide)
peptide: Biotin-GGSGGCEAKIEKHNHYQKQLEIAHEKLRHAESVGDGERVSRSREKHALLEGRTKELGYTVKKHGC
modifications: disulfide 6-65
notes: as for B1
B3: RAP d3 (ligand)
chain: GLDRLRRVSHQGYSTEAEFEEPRVIDLWDLAQSANLTDKELEAFREELKHFEAKIEKHNHYQKQLEIAHEKLRHAESVGDGERVSRSREKHALLEGRTKELGYTVKKHLQDLSGRISRARHNEL
notes: also called recombinant RAP d3
B4: MegaRAP1 d3 K217E (ligand)
chain: GLDRLRRVSHQGYTTEAEFEEPRVIDLWDLAQSANLTDKELEAFREELKYFKAKIEAHNHYQKQLEIAHEELRHAESVGDGERVSRSREKHALLEGRTKELGYTVKKHLQDLSGRISRARHNEL
notes: also called MegaRAP1 K217E
B5: RAP d3 K256A, K270E (ligand)
chain: GLDRLRRVSHQGYSTEAEFEEPRVIDLWDLAQSANLTDKELEAFREELKHFEAKIEAHNHYQKQLEIAHEELRHAESVGDGERVSRSREKHALLEGRTKELGYTVKKHLQDLSGRISRARHNEL
notes: also called RAP K256A, K270E
B6: MegaRAP1 d3 A256K, E270K (ligand)
chain: GLDRLRRVSHQGYTTEAKFEEPRVIDLWDLAQSANLTDKELEAFREELKYFKAKIEKHNHYQKQLEIAHEKLRHAESVGDGERVSRSREKHALLEGRTKELGYTVKKHLQDLSGRISRARHNEL
notes: also called MegaRAP1 A256K, E270K
B7: MegaRAP1 d3 K251E, E270K (ligand)
chain: GLDRLRRVSHQGYTTEAKFEEPRVIDLWDLAQSANLTDKELEAFREELKYFEAKIEAHNHYQKQLEIAHEKLRHAESVGDGERVSRSREKHALLEGRTKELGYTVKKHLQDLSGRISRARHNEL
notes: also called MegaRAP1 K251E, E270K
B8: MegaRAP1 d3 (ligand)
chain: GLDRLRRVSHQGYTTEAKFEEPRVIDLWDLAQSANLTDKELEAFREELKYFKAKIEAHNHYQKQLEIAHEELRHAESVGDGERVSRSREKHALLEGRTKELGYTVKKHLQDLSGRISRARHNEL
notes: also called RAPv2A d3; RAP v2
B9: RAP d3 E217K (ligand)
chain: GLDRLRRVSHQGYSTEAKFEEPRVIDLWDLAQSANLTDKELEAFREELKHFEAKIEKHNHYQKQLEIAHEKLRHAESVGDGERVSRSREKHALLEGRTKELGYTVKKHLQDLSGRISRARHNEL
notes: also called RAP E217K
B10: RAP d3 K270E (ligand)
chain: GLDRLRRVSHQGYSTEAEFEEPRVIDLWDLAQSANLTDKELEAFREELKHFEAKIEKHNHYQKQLEIAHEELRHAESVGDGERVSRSREKHALLEGRTKELGYTVKKHLQDLSGRISRARHNEL
notes: also called RAP K270E
B11: RAP d3 E251K (ligand)
chain: GLDRLRRVSHQGYSTEAEFEEPRVIDLWDLAQSANLTDKELEAFREELKHFKAKIEKHNHYQKQLEIAHEKLRHAESVGDGERVSRSREKHALLEGRTKELGYTVKKHLQDLSGRISRARHNEL
notes: also called RAP E251K
B12: RAP d3 E251K, K256A, K270E (ligand)
chain: GLDRLRRVSHQGYSTEAEFEEPRVIDLWDLAQSANLTDKELEAFREELKHFKAKIEAHNHYQKQLEIAHEELRHAESVGDGERVSRSREKHALLEGRTKELGYTVKKHLQDLSGRISRARHNEL
notes: also called RAP E251K, K256A, K270E
B13: MegaRAP1 d3 K251E (ligand)
chain: GLDRLRRVSHQGYTTEAKFEEPRVIDLWDLAQSANLTDKELEAFREELKYFEAKIEAHNHYQKQLEIAHEELRHAESVGDGERVSRSREKHALLEGRTKELGYTVKKHLQDLSGRISRARHNEL
notes: also called MegaRAP1 K251E
B14: LRP1 CR3-5 (receptor)
chain: not shown
notes: domain: CR3-5; also called LRP1 CR domains
B15: MegaRAP1 d3 T213S (ligand)
chain: GLDRLRRVSHQGYSTEAKFEEPRVIDLWDLAQSANLTDKELEAFREELKYFKAKIEAHNHYQKQLEIAHEELRHAESVGDGERVSRSREKHALLEGRTKELGYTVKKHLQDLSGRISRARHNEL
notes: also called MegaRAP1 T213S
B16: MegaRAP1 d3 Y249H (ligand)
chain: GLDRLRRVSHQGYTTEAKFEEPRVIDLWDLAQSANLTDKELEAFREELKHFKAKIEAHNHYQKQLEIAHEELRHAESVGDGERVSRSREKHALLEGRTKELGYTVKKHLQDLSGRISRARHNEL
notes: also called MegaRAP1 Y249H
B17: RAP d3 H249Y (ligand)
chain: GLDRLRRVSHQGYSTEAEFEEPRVIDLWDLAQSANLTDKELEAFREELKYFEAKIEKHNHYQKQLEIAHEKLRHAESVGDGERVSRSREKHALLEGRTKELGYTVKKHLQDLSGRISRARHNEL
notes: also called RAP H249Y
B18: RAP d3 E251K, K270E (ligand)
chain: GLDRLRRVSHQGYSTEAEFEEPRVIDLWDLAQSANLTDKELEAFREELKHFKAKIEKHNHYQKQLEIAHEELRHAESVGDGERVSRSREKHALLEGRTKELGYTVKKHLQDLSGRISRARHNEL
notes: also called RAP E251K, K270E
B19: MegaRAP1 d3 A256K (ligand)
chain: GLDRLRRVSHQGYTTEAKFEEPRVIDLWDLAQSANLTDKELEAFREELKYFKAKIEKHNHYQKQLEIAHEELRHAESVGDGERVSRSREKHALLEGRTKELGYTVKKHLQDLSGRISRARHNEL
notes: also called MegaRAP1 A256K
B20: LRP2 CR89 (receptor)
chain: not shown
notes: domain: CR89
B21: MegaRAP1 d3 E270K (ligand)
chain: GLDRLRRVSHQGYTTEAKFEEPRVIDLWDLAQSANLTDKELEAFREELKYFKAKIEAHNHYQKQLEIAHEKLRHAESVGDGERVSRSREKHALLEGRTKELGYTVKKHLQDLSGRISRARHNEL
notes: also called MegaRAP1 E270K

Assays:
[1] = target: T1, recombinant human LRP1 cluster II (R&D …); assay: solid phase binding assay, LRP1 cluster II-Fc coated on plate
Description: Control wells contained no added inhibitor. Wells were washed with TBS supplemented with 5 mM CaCl₂ and 0.05% Tween-20. […] Excess HRP conjugate was removed and wells washed. Color was developed using TMB reagents (BioRad, Hercules, Calif.).

LRP2 CR89 [2] = target: B20; assay: solid-phase binding, OD at highest concentration against highest OD of all ligands
LRP1 CR3-5 [3] = target: B14; assay: as above
LRP2 CR89 [4] = target: B20; assay: solid-phase binding (OD), single-site non-linear regression
LRP1 CR3-5 [5] = target: B14; assay: binding titration on LRP1 CR3-5, absorbance against nM of ligand
LRP2 CR89 [6] = target: B20; assay: binding titration on LRP2 CR89, absorbance against nM of ligand
LRP1 CR3-5 [7] = target: B14; assay: solid-phase binding (OD), single-site non-linear regression
RAP d3 [8] = target: B3; assay: as above
RAP d3 [9] = target: B3; assay: binding titration on LRP2 CR89, absorbance against nM of ligand

Chain of LRP2 CR89 (P98164 1025-1102 limits assumed): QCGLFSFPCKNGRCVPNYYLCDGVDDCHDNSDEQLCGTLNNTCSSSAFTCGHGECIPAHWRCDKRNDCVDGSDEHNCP

Binder	% max (percent of maximum binding) (LRP2 CR89 [2])	% max (percent of maximum binding) (LRP1 CR3-5 [3])	Kd (LRP2 CR89 [4])	binding result (LRP1 CR3-5 [5])	further results
B1	–	–	–	–	Kd [1]: ~4 nM
B2	–	–	–	–	Kd [1]: ~21 nM
B3	5%	76%	–	–	–
B4	88%	2%	25 nM	no binding (tested: 100 nM)	–
B5	3%	2%	–	no binding (tested: 100 nM)	binding result (LRP2 CR89 [6]): no binding (tested: 100 nM)
B6	73%	93%	72 nM	–	Kd (LRP1 CR3-5 [7]): 4 nM
B7	16%	16%	153 nM	–	–
B8	88%	4%	38 nM	no binding (tested: 100 nM)	–
B9	5%	91%	–	–	Kd (LRP1 CR3-5 [7]): 9 nM; binding result (LRP2 CR89 [6]): no binding (tested: 100 nM)
B10	2%	4%	–	no binding (tested: 100 nM)	binding result (LRP2 CR89 [6]): no binding (tested: 100 nM)
B11	5%	100%	–	–	Kd (LRP1 CR3-5 [7]): 7 nM; binding result (LRP2 CR89 [6]): no binding (tested: 100 nM)
B12	40%	2%	114 nM	no binding (tested: 100 nM)	–
B13	11%	2%	–	no binding (tested: 100 nM)	–
B14	–	–	–	–	Kd (RAP d3 [8]): 16 nM
B15	94%	2%	19 nM	no binding (tested: 100 nM)	–
B16	35%	2%	–	no binding (tested: 100 nM)	–
B17	2%	90%	–	–	Kd (LRP1 CR3-5 [7]): 28 nM; binding result (LRP2 CR89 [6]): no binding (tested: 100 nM)
B18	2%	4%	–	no binding (tested: 100 nM)	–
B19	2%	6%	–	no binding (tested: 100 nM)	binding result (LRP2 CR89 [6]): no binding (tested: 100 nM)
B20	–	–	–	–	binding result (RAP d3 [9]): no binding (tested: 100 nM)
B21	100%	85%	8 nM	–	Kd (LRP1 CR3-5 [7]): 114 nM
